Experimental data reported in US20250002943.

Test system: Bxb1 integrase (serine recombinase) (Mycobacterium phage Bxb1?)
Assay: cell_activity

| Substance | activity (% mNeonGreen-positive cells) (attB on cargo recombined with genomic attP in hiPSCs, 0.01% without cargo and Bxb1 plasmids) | activity (% mNeonGreen-positive cells) (attP x attB recombination in hiPSCs, all components delivered with Cas9 RNP, 0.38% without attP ssODN template) |
| --- | --- | --- |
| Bxb1 attB site on circularised mNeonGreen cargo | 11.3 | – |
| Bxb1 attP site (58 nt, integrated at ACTR10 via ssODN) | – | 11.3 |
